Measured values: paper doi:10.1101/2024.07.30.605722 (bioRxiv, 2024)
Blank lines part the entries; values can stand above or below the molecule they belong to.

How the values were obtained:
PDIA6 a^0 domain (human) = assay: co-sedimentation
native MS = target: the molecule itself; assay: native MS

b amount left in the supernatant (PDIA6 a^0 domain (human)): 60%
Molecule: MBP fusion protein of PDIA6 b domain (domain or fragment)

B1: PDIA6 (enzyme, human, UniProt Q15084 20-440, looked up)
chain: LYSSSDDVIELTPSNFNREVIQSDSLWLVEFYAPWCGHCQRLTPEWKKAATALKDVVKVGAVDADKHHSLGGQYGVQGFPTIKIFGSNKNRPEDYQGGRTGEAIVDAALSALRQLVKDRLGGRSGGYSSGKQGRSDSSSKKDVIELTDDSFDKNVLDSEDVWMVEFYAPWCGHCKNLEPEWAAAASEVKEQTKGKVKLAAVDATVNQVLASRYGIRGFPTIKIFQKGESPVDYDGGRTRSDIVSRALDLFSDNAPPPELLEIINEDIAKRTCEEHQLCVVAVLPHILDTGAAGRNSYLEVLLKLADKYKKKMWGWLWTEAGAQSELETALGIGGFGYPAMAAINARKMKFALLKGSFSEQGINEFLRELSFGRGSTAPVGGGAFPTIVEREPWDGRDGELPVEDDIDLSDVELDDLGKDEL
stoichiometry N (native MS): 2
